Laboratory results published in paper doi:10.1101/441683.

Target: TssM (enteroaggregative Escherichia coli (EAEC))
Assay: cryo-EM structure

- stoichiometry N (TssJ per TssM): 1.5
Substance: TssJ (natural protein)
